Experimental data taken from patent US20260258115A1 (MAPP BIOPHARMACEUTICAL, published 2026).

Key:
[1] = target: T1, RSV postfusion F (postF), subtype A (respiratory syncytial virus subtype A, UniProt P03420 26-513); test: BLI, IgG
T1 construct: also called Postfusion subtype A; F deltaFP

[2] = target: T2, RSV prefusion F (preF), subtype B (respiratory syncytial virus subtype B); test: BLI, IgG
T2 construct: also called Prefusion subtype B

[3] = target: T3, RSV postfusion F (postF), subtype B (respiratory syncytial virus subtype B); test: BLI, IgG
T3 construct: also called Postfusion subtype B

[4] = target: RSV F on RSV subtype A virus (mKate-RSV A2) (respiratory syncytial virus A2, UniProt P03420 26-574); test: cell-based or functional assay
[5] = target: RSV F on RSV subtype B virus (mKate-RSV B 18537) (respiratory syncytial virus B 18537, UniProt P13843 26-574); test: cell-based or functional assay
[6] = target: RSV fusion glycoprotein (RSV F) on RSV-A2 virus (respiratory syncytial virus, UniProt P03420 26-574); test: cell-based or functional assay
[7] = target: RSV prefusion F (preF), DS-Cav1 (respiratory syncytial virus, UniProt P03420 26-513); test: BLI, IgG on sensor, 100 nM antigen
[8] = target: RSV postfusion F (postF), F deltaFP (respiratory syncytial virus, UniProt P03420 26-513); test: BLI, IgG on sensor, 100 nM antigen

Row | Binder | Kd [1] | Kd [2] | Kd [3] | Neut IC50 subtype A [4] | Neut IC50 subtype B [5] | Neutralization IC50 (RSV subtype A) [6] | Kd [7] | Kd [8]
1 | ADI-19482 (antibody, V domains shown, full-length IgG) VH: QVQLQQWGAGLLKPSETLSLTCGAFHGSFSGYYWSWIRQPPGKGLEWIGEVTHSRSTNYNPSLKSRITISVDTSRNQFSLKLNSVTAADTAVYYCARGSGEWYFDIWGRGTLVTVSS VL: not shown | 1.71 nM | 1.89 nM | 0.555 nM | 1.49 µg/mL | 2.24 µg/mL |  |  | 
2 | ADI-41354 (antibody, V domains shown, IgG1; also called Ab 651) VH: EVQLLESGGGLVQPGGSLRLSCAASGFTFSSYAMSWVRQAPGKGLEWVSGISGSGGTTYYADSVKGRFTISRDNSKNTLYLQMNSLRAEDTAVYYCAKDSPVNINCGGDCDVAYWGQGTLVTVSS VL: EIVMTQSPSSLSASVGDTVTITCQASQDISYSLNWYQQKPGKAPNLLIFDASHLQTGVPSRFSGGGDGKHFSFTISSLQPEDVATYYCQQYDSLMYTFGQGTKVEIK |  |  |  |  |  | > 25 µg/mL | 0.771 nM | 0.429 nM
3 | ADI-14355 (antibody, V domains shown, full-length IgG; also called Ab 23) VH: EVQLVESGPTLVKPTQTLTLTCTFSGFSLSTSGVGVGWIRQPPGKALEWLAVIYWDDDKTYSPSLKSRLTITKDTSKNQVVLTMTNMNPVDTATYYCARCPAPVYSYGVDVWGQGTTVTVSS VL: QSALTQPASVSGSPGQSITISCTATSSDFGGYDYVSWYQQHPGEAPKLMISDVTNRPSGVSNRFSGSKSGNTASLTISGLQAEDEADYYCSSYTSYTTPYVFGTGTKLTVL | 0.48 nM | 1.25 nM | 0.37 nM |  | 4.72 µg/mL |  |  | 
4 | ADI-19480 (antibody, V domains shown, full-length IgG) VH: EVQLVESGGGLVKPGGSLRLSCAASGFTFSAYSMNWVRQAPGKGLEWVSSISSTTNYISYADSVKGRFTISRDNAKNSLYLQMNSLRAEDTAVYYCARDPKYYGLGTYYKDDYWGQGTLVTVSS VL: NFMLTQPHSVSESPGKTVTISCTRSGGSIASNYVQWYQQRPGSSPTTVIYEDNQRPSGVPDRFSGSIDSSFNSASLTVSGLKTEDEADYYCQSFDNNNRWVFGGGTKLTVL | 0.129 nM | 0.383 nM | 0.119 nM |  | 6.25 µg/mL |  |  | 
5 | ADI-41360 (antibody, V domains shown, IgG1; also called Ab 657) VH: EVQLVESGGGLVQPGGSLRLSCAASGLTFSRYSMNWVRQAPGKGLEWVSYISSTGRRIQYADSVKGRFTISRDDGKNSLYLQMNSLRAEDTAVYYCARDPLNYHDNTAYWSYWGQGTLVTVSS VL: NFMLTQPHSVSESPGKTVTISCTRSSGSIASNYVQWYQQRPGSAPTTVIYEDNQRPSGVPDRFSGSIDSSSNSASLTISGLKTEDEADYYCQSYDSSNPLVFGGGTKLTVL |  |  |  |  |  | > 25 µg/mL | 2.46 nM | 0.358 nM
6 | ADI-14368 (antibody, V domains shown, full-length IgG; also called Ab 36) VH: EVQLVESGGGLVKPGGSLRLSCAASGFTFINAWMSWVRQAPGKGLEWVGRIKSKADGGTTDDAAPVKGRFTISRDDSKNTLYLQMNSLKIEDTAVYYCATDVLPLYNWNLGWNFDLWGRGTLVTVSS VL: SYVLTQPPSVSVAPGKTARITCGGNNIADKSVHWYQQKPGQAPVLVMYYDTDRPSGIPERFSGFNSGNTATLTISRVEAGDEADYYCQVWDSSSDHVVFGGGTKVTVL | 24.5 nM | 1.21 nM | 17.7 nM |  | 1.1 µg/mL |  |  | 
7 | ADI-25547 (antibody, V domains shown, full-length IgG) VH: EVQLLESGGGLIQPGGSLRLSCAASGFTVSSNYMSWVRQAPGKGLEWVSVIYSGGSTYYADSVKGRFTISRDNSKNTLYLQMNSLRAEDTAVYYCARGGIADAFDIWGQGTMVTVSS VL: ETTLTQSPSSVSASVGDRVTITCRASQGISSWLAWYQQKPGKAPKLLIYAASSLQSGVPSRFSGSGSGTDFTLTISSLQPEDFATYYCQQANSFPRTFGQGTKLEIK | 21.5 nM | 20.3 nM | 23.1 nM |  |  |  |  | 
8 | ADI-25497 (antibody, V domains shown, full-length IgG) VH: EVQLLESGGGLVQPGGSLRLSCAASGFTFSSYWMSWVRQAPGKGLEWVANIKQDGSEKYYVDSVKGRFTISRDNAKNSLYLQMNSLRAEDTAVYYCARDGLLQYDFWSGYYDYWGQGTLVTVSS VL: EIVLTQSPSSLSASVGDRVTITCRASQGISSWLAWYQQKPEKAPKSLIYAASSLQSGVPSRFSGSGSGTDFTLTISSLQPEDFATYYCQQYNSYPFTFGPGTKVDIK | 18.4 nM | 14.1 nM | 14.8 nM |  |  |  |  | 
9 | ADI-14341 (antibody, V domains shown, full-length IgG; also called Ab 9) VH: QVQLVQSGGGLVQPGGSLRLSCAGSGFTFSDYEMNWVRQAPGKGLEWLSYISSSGSIIYYADSVKGRFTISRDNAKNSLYLQMNSLRAEDTGLYYCARANHRHYYGMDVWGQGTTVTVSS VL: not shown | 0.713 nM |  | 0.612 nM |  | 17.5 µg/mL |  |  | 
10 | ADI-41355 (antibody, V domains shown, IgG1) VH: EVQLVESGGGLVKPGGSLRLSCTASGFTFSDYYMNWIRQAPGKGLEWVSYISGDGNTIYYTDSVKGRFTISRDNAKNSLFLQMNSLRGEDSAVYYCAGPVRGYTYGIFDYWGQGALVTVSS VL: YYVLTQPPSVSVAPGQAARITCGGNNIGSRSVNWYQQKPGQAPVVVIYGDSVRPSGIPERFSGSNSGNTATLTFSRVEAGDEADYYCQVWETNSDHPVVFGGGTKVTVL |  |  |  |  |  | > 25 µg/mL | 3.84 nM | 1.18 nM
11 | ADI-22759 (antibody, V domains shown, full-length IgG) VH: EVQLLESGGGLVKPGGSLRLSCAASGFSFSSYTMNWVRQAPGKGLEWVSSITGGSSYIDYAGSLKGRFTISRDNAKNSLYLQMNSLRVEDTAVYYCARDFPNIAVGGKTLDYWGQGTLVTVSS VL: QPVLTQPPSVSGAPGQRVTISCTGSSSNIGAGYDVHWFQQLPGTAPKLLIYVNNNRPSGVPDRFSGSKSGTSASLAITGLQAEDEADYYCQSYDRLSAVVFGGGTKVTVL | 25.3 nM | 0.353 nM | 10.1 nM | 0.08 µg/mL | 0.2 µg/mL |  |  | 
12 | ADI-14350 (antibody, V domains shown, full-length IgG; also called Ab 18) VH: EVQLVESGPGLVKPSETLSLTCTVSGDSVSNNNYYWNWIRQSPGKGLEWIGYIYYSGSTDYNPSLKSRVTISVDTSKNQFSLNLRSVTAADTAIYFCASAPWGMFTILGVVP VL: QSVLTQPPSVSGAPGQRVTISCTGSSSNIGAGYDVHWYQQLPGTAPKLLIYGSSNRPSGVPDRFSGSRSGTSASLAITGLQAEDEADYYCQSYDGSLGVYVFATGTKVTVL | 0.264 nM | 0.574 nM | 0.148 nM |  | 4.82 µg/mL |  |  | 
13 | ADI-14365 (antibody, V domains shown, full-length IgG; also called Ab 33) VH: QVQLVQSGAEVKKPGASVKVSCKVSGYTLTKLSMHWVRQAPGKGLEWMGFFDPEDGDTLYAQKFQGRVTMTEDTSSDTPYMELRSLRSEDTAVYYCASPAAAGQFDYWGQGTLVTVSS VL: DIVMTQSPSSLSASVGDRVTITCRASQFISSYLHWYQQKTGKAPKLLIYAASSLQSGVPSRFSGSGSGTDFTLTISSLQPEDFATYYCQQSYNTPRTFGQGTKLEIK | 10.3 nM | 0.962 nM | 22.3 nM | 0.8 µg/mL | 0.49 µg/mL |  |  | 
14 | ADI-14338 (antibody, V domains shown, full-length IgG; also called Ab 6) VH: EVQLVESGGGVVQPGRPLRLSCAASGFTFSTYDLYWVRQAPGKGLDWVAIISPDGNKKYYADSVKGRFTISRDNSKNTLFLHMNSLRAEDTAVYYCARDYGNYFGSGSYYRYFDLWGRGTLVTVSS VL: DIQLTQSPSSLSASVGDRVTITCRASQSISSHLNWYQQKPGKAPKLLIYASSSLQSGVPSRFSGSGSGTDFTLTISGLQPEDFATYYCQQSYSTPFTFGPGTKVEIK | 5.98 nM | 7.04 nM | 3.14 nM |  | 10.2 µg/mL |  |  | 
